Reference: paper PMC8961635

Assays:
human CISD2 (human) = assay: SEC-MALS; holo-form ([2Fe-2S] cluster bound); 100 µL at ~2 mg·mL^−1 injected on Superdex 200 increase 10/300 GL, 0.5 mL·min^−1, 50 mM sodium phosphate pH 7.5, 50 mM NaCl, 10 mM DTT; monomer or dimer
human mitoNEET (human) = assay: as above
[1] = biological target: LarE from Methanococcus maripaludis (Methanococcus maripaludis); assay: SEC-MALS; apo-form (as-purified protein, <5% cluster); 100 µL at ~2 mg·mL^−1 injected on Superdex 200 increase 10/300 GL, 0.5 mL·min^−1, 25 mM HEPES pH 7.5, 300 mM NaCl, 5 mM DTT; monomer or dimer
[2] = biological target: LarE from Methanococcus maripaludis (Methanococcus maripaludis); assay: SEC-MALS; holo-form ([4Fe-4S] cluster reconstituted anaerobically; analysed aerobically immediately after thawing); 100 µL at ~2 mg·mL^−1 injected on Superdex 200 increase 10/300 GL, 0.5 mL·min^−1, 25 mM HEPES pH 7.5, 300 mM NaCl, 5 mM DTT; monomer or dimer
[3] = biological target: CyuA from Methanococcus maripaludis (Methanococcus maripaludis); assay: SEC-MALS; apo-form (as-purified protein, <5% cluster); 100 µL at ~2 mg·mL^−1 injected on Superdex 200 increase 10/300 GL, 0.5 mL·min^−1, 25 mM HEPES pH 7.5, 300 mM NaCl, 5 mM DTT; monomer or dimer
[4] = biological target: CyuA from Methanococcus maripaludis (Methanococcus maripaludis); assay: SEC-MALS; holo-form ([4Fe-4S] cluster reconstituted anaerobically; analysed aerobically immediately after thawing); 100 µL at ~2 mg·mL^−1 injected on Superdex 200 increase 10/300 GL, 0.5 mL·min^−1, 25 mM HEPES pH 7.5, 300 mM NaCl, 5 mM DTT; monomer or dimer

human CISD2 (domain or fragment) was tested. Which stoichiometry N (human CISD2 (human)) did it give?
The stoichiometry N was 2.

How did the stoichiometry N (human mitoNEET (human)) turn out when human mitoNEET (domain or fragment) was run?
Its stoichiometry N is 2.

Which stoichiometry N [1] does the source give for “LarE from Methanococcus maripaludis (enzyme)” here?
The stoichiometry N was 2.

And the stoichiometry N [2]?
The stoichiometry N was 2.

What does the source list for “CyuA from Methanococcus maripaludis (enzyme)”?
stoichiometry N [3]: 2; stoichiometry N [4]: 2
